Experimental data published in publication PMC3246890 (The Journal of Cell Biology, 2011).

Target: the molecule itself
Assay: bead aggregation assay

B1: NcadEC-Fc (secreted ectodomain of zebrafish N-cadherin fused to the Fc region of human IgG) (Fc fusion, UniProt Q90275 147-711, looked up)
chain: DWVIPPVNVLENSRKQFPEELVKIQSDKDKSNTLRYSVTGPGADQNPTGLFIIDPISGLLSVTKPLDREHIPNFHLRAHAVDINGNQMENPIDIIINVIDMNDNRPEFTHQIWNGTVDEGAKPGTFVMTVTSQDKDDPNTANGMLRYKILSQTPESPSSNMFTINNKTGKIITVAAGLDREKVPQYTLIIQATDMEGNPTYGLSNTATAVIRLLDVNDNAPEFTRETFHGEVPENRVNVIVTNLTVTDKDEPGTPAWNAVYRIISGDPTGRFSIPTDPVTNEGLVTVVKPVDFEMNRSFMLTVVADNEVPLASGIHRTRQSTATVSIRVIDVNESPNFDPNPKQIKLEEGLPQWSMLTTFTAHDPDRYMQQTISYSKLYDPANWLEIDPNNGRISTIAVLDRESPYVKNNLYNATFMASDNGVPRASGTGTLQIYLLDINDNAPRVFPQEAEVCERPEPNAINITAVDGDLNPNAGPYAFELPNRPSDIRRNWTLTRISGDHAQLSLKISYLESGIYELPISITDSGNLPMSNTTYLRIKVCQCDHHGDCVDMERIMAAGLGTGA
B1: binds.
